Source: patent publication US20070036794A1 (Genentech, published 2007)
Read-outs that look alike come from different tables or passages of the source.

Experiments:
[1] = molecular target: T1, gD-tagged trkC (human trkC-gD) (human, UniProt Q16288 32-429); experiment: SPR (BIAcore), summary table
T1 construct: purified antigen of the ELISAs and SPR; also called gD-trkC

[2] = molecular target: T2, trkC fused with a gD flag epitope, on stably transfected CHO cells (KIRA); experiment: cell-based or functional assay
trkC mutant R285A [3] = molecular target: T3, trkC mutant R285A (human, UniProt Q16288 32-429, limits assumed); experiment: binding titration on trkC point mutants
T3 construct: point mutant in domain 5
T3 sequence (Q16288 32-429 S70N/R316A limits assumed): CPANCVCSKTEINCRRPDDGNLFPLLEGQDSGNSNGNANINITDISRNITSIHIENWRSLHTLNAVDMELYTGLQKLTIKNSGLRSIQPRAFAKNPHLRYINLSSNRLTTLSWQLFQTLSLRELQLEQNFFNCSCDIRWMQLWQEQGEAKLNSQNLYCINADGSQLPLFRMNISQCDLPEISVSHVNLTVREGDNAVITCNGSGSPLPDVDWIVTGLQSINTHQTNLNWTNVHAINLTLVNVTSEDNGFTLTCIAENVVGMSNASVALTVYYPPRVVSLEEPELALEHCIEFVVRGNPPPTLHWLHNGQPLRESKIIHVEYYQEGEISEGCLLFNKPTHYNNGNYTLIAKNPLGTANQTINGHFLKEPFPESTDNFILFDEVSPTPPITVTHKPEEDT

trkC mutant H318A = molecular target: T4, trkC mutant H318A (human, UniProt Q16288 32-429, limits assumed); experiment: binding titration on trkC point mutants
T4 construct: point mutant in domain 5
T4 sequence (Q16288 32-429 S70N/H349A limits assumed): as the sequence (Q16288 32-429 S70N/R316A limits assumed) above, with A285R, H318A counted along it

trkC mutant N335A [4] = molecular target: T5, trkC mutant N335A (human, UniProt Q16288 32-429, limits assumed); experiment: binding titration on trkC point mutants
T5 construct: point mutant in domain 5
T5 sequence (Q16288 32-429 S70N/N366A limits assumed): as the sequence (Q16288 32-429 S70N/R316A limits assumed) above, with A285R, N335A counted along it

[5] = molecular target: T1, gD-tagged trkC (human trkC-gD); experiment: SPR (BIAcore), gD-trkC over immobilized IgG
[6] = molecular target: T1, gD-tagged trkC (human trkC-gD); experiment: SPR (BIAcore), IgG over immobilized gD-trkC (400-600 RU)
trkC mutant L284E [7] = molecular target: T6, trkC mutant L284E (human, UniProt Q16288 32-429, limits assumed); experiment: binding to trkC point mutants (NB = no binding observed)
T6 construct: point mutant in domain 5
T6 sequence (Q16288 32-429 S70N/L315E limits assumed): as the sequence (Q16288 32-429 S70N/R316A limits assumed) above, with L284E, A285R counted along it

trkC mutant L286H [8] = molecular target: T7, trkC mutant L286H (human, UniProt Q16288 32-429, limits assumed); experiment: as above
T7 construct: point mutant in domain 5
T7 sequence (Q16288 32-429 S70N/L317H limits assumed): as the sequence (Q16288 32-429 S70N/R316A limits assumed) above, with A285R, L286H counted along it

trkC mutant E287K [9] = molecular target: T8, trkC mutant E287K (human, UniProt Q16288 32-429, limits assumed); experiment: as above
T8 construct: point mutant in domain 5
T8 sequence (Q16288 32-429 S70N/E318K limits assumed): as the sequence (Q16288 32-429 S70N/R316A limits assumed) above, with A285R, E287K counted along it

[10] = molecular target: wildtype trkC (reference of Table 5) (human, UniProt Q16288 32-429, limits assumed); experiment: binding titration on trkC point mutants; wildtype reference row
Sequence of wildtype trkC (reference of Table 5) (Q16288 32-429 S70N limits assumed): as the sequence (Q16288 32-429 S70N/R316A limits assumed) above, with A285R counted along it

[11] = molecular target: T1, gD-tagged trkC (human trkC-gD); experiment: competition ELISA on gD-trkC; competitor: unlabelled 2250 (50 µg/ml); biotin-MAb 1 µg/ml; SA-HRP;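 note: negative control competitors were unlabelled human IgG2 and mouse IgG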
Procedure: (§1) A competition ELISA was used to get preliminary information about various groups to which these antibodies belong depending on the epitope(s) on trkC they recognize. In this assay, trkC-gD (1 μg/ml) was used as a capture antigen to coat microliter plate. A specific biotinylated anti-trkC monoclonal antibody (1 μg/ml) was added to the coated plate either alone or in presence of another anti-trkC monoclonal antibody that was unlabeled and used in excess (50 μg/ml) as compared to the labeled antibody. If biotinylated antibody and unlabeled antibody both recognize the same or overlapping epitope, they will compete for binding to the immobilized trkC, resulting in decreased binding of the labeled antibody. If they recognize different and non-overlapping epitopes, there will be no competition between them, and the binding of the labeled antibody to the immobilized trkC will not be affected. Unlabeled human IgG2 and mouse IgG were used as negative control.

[12] = molecular target: T1, gD-tagged trkC (human trkC-gD); experiment: competition ELISA on gD-trkC; competitor: unlabelled 2253 (50 µg/ml); biotin-MAb 1 µg/ml; SA-HRP;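 note: negative control competitors were unlabelled human IgG2 and mouse IgG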
Procedure: as §1

[13] = molecular target: T1, gD-tagged trkC (human trkC-gD); experiment: competition ELISA on gD-trkC; competitor: unlabelled 2256 (50 µg/ml); biotin-MAb 1 µg/ml; SA-HRP;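 note: negative control competitors were unlabelled human IgG2 and mouse IgG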
Procedure: as §1

[14] = molecular target: T1, gD-tagged trkC (human trkC-gD); experiment: competition ELISA on gD-trkC; competitor: unlabelled 2345 (50 µg/ml); biotin-MAb 1 µg/ml; SA-HRP;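 note: negative control competitors were unlabelled human IgG2 and mouse IgG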
Procedure: as §1

[15] = molecular target: T1, gD-tagged trkC (human trkC-gD); experiment: competition ELISA on gD-trkC; competitor: unlabelled 2349 (50 µg/ml); biotin-MAb 1 µg/ml; SA-HRP;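 note: negative control competitors were unlabelled human IgG2 and mouse IgG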
Procedure: as §1

[16] = molecular target: T1, gD-tagged trkC (human trkC-gD); experiment: competition ELISA on gD-trkC; competitor: unlabelled 6.4.1 (50 µg/ml); biotin-MAb 1 µg/ml; SA-HRP;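 note: negative control competitors were unlabelled human IgG2 and mouse IgG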
Procedure: as §1

trkC mutant L284E [17] = molecular target: T6, trkC mutant L284E; experiment: binding titration on trkC point mutants
trkC mutant L286H [18] = molecular target: T7, trkC mutant L286H; experiment: binding titration on trkC point mutants
trkC mutant E287K [19] = molecular target: T8, trkC mutant E287K; experiment: binding titration on trkC point mutants
[20] = molecular target: T1, gD-tagged trkC (human trkC-gD); experiment: competition ELISA on gD-trkC; competitor: unlabelled 2.5.1 (50 µg/ml); biotin-MAb 1 µg/ml; SA-HRP;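 note: negative control competitors were unlabelled human IgG2 and mouse IgG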
Procedure: as §1

trkC mutant N335A [21] = molecular target: T5, trkC mutant N335A; experiment: binding to trkC point mutants (NB = no binding observed)
[22] = molecular target: T1, gD-tagged trkC (human trkC-gD); experiment: competition ELISA on gD-trkC; competitor: unlabelled 6.1.2 (50 µg/ml); biotin-MAb 1 µg/ml; SA-HRP;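 note: negative control competitors were unlabelled human IgG2 and mouse IgG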
Procedure: as §1

[23] = molecular target: T2, trkC fused with a gD flag epitope, on …; experiment: cell-based or functional assay; remark: listed apart in the source
trkC mutant R285A [24] = molecular target: T3, trkC mutant R285A; experiment: binding to trkC point mutants (NB = no binding observed)

T1 sequence (Q16288 32-429 S70N): as the sequence (Q16288 32-429 S70N/R316A limits assumed) above, with A285R counted along it

B1: anti-trkC agonist monoclonal antibody 6.4.1 (antibody, human IgG2, V domains shown)
VH: QVQLQESGPGLVRPSETLSLTCTVSGGSISTYYWNWIRQPAGKGLEWIGRIYTSGSTNYNPSLKSRVTMSVDTSKNQFSLKLSSVTAADTAVYYCARDGGYSNPFDWGQGTLVTVSS
VL: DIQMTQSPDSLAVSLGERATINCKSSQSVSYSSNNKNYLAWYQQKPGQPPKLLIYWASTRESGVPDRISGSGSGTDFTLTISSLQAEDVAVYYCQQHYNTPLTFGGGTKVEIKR
notes: human IgG2 from Xenomouse hybridoma; heavy chain subgroup II, light chain kappa I; also called Mab 6.4.1
[1]
  Kd: 12 nM
[2]
  EC50 (read off the curve), trkC tyrosine phosphorylation, KIRA: ~3 nM
trkC mutant R285A [3]
  ratio EC50 mutant/EC50 wildtype trkC: 0.8 ratio
trkC mutant H318A
  ratio EC50 mutant/EC50 wildtype trkC: 0.7 ratio
trkC mutant N335A [4]
  ratio EC50 mutant/EC50 wildtype trkC: 0.3 ratio
[5]
  Kd: 28 nM
[6]
  Kd: 12 nM
trkC mutant L284E [7]
  binding result: no binding
trkC mutant L286H [8]
  binding result: no binding
trkC mutant E287K [9]
  binding result: no binding
[10]
  ratio EC50 mutant/EC50 wildtype trkC: 1 ratio
[11]
  signal of the biotin-MAb in the competition ELISA: 0.1
[12]
  signal of the biotin-MAb in the competition ELISA: 0.03
[13]
  signal of the biotin-MAb in the competition ELISA: 0.1
[14]
  signal of the biotin-MAb in the competition ELISA: 0.12
[15]
  signal of the biotin-MAb in the competition ELISA: 0.1
[16]
  signal of the biotin-MAb in the competition ELISA: 0.07

B2: anti-trkC agonist monoclonal antibody 2253 (antibody, mouse IgG1, V domains shown)
VH: QVQLQQSGAELMQPGASVKISCKSTGYTFSNFWIEWVKQRPGHGLEWIGEILPGSDNTNYNEKFKGKATFTADTSSNTAYMQLSSLTSEDSAVYYCARKNRNYYGNYVVWGAGTTLTVSS
VL: QIVLTQSPAIMSASPGEKVTITCSASSSVSYMYWFQQKPGTSPKLWIYSTSNLASGVPARFSGSGSGTSYSLTISRMEAEDAATYYCQQRSSYPLTFGAGTKLELKR
notes: murine IgG1; heavy chain subgroup IIA, light chain kappa IV
[1]
  Kd: 42 nM
trkC mutant L284E [17]
  ratio EC50 mutant/EC50 wildtype trkC: 0.7 ratio
trkC mutant R285A [3]
  ratio EC50 mutant/EC50 wildtype trkC: 0.9 ratio
trkC mutant L286H [18]
  ratio EC50 mutant/EC50 wildtype trkC: 0.4 ratio
trkC mutant E287K [19]
  ratio EC50 mutant/EC50 wildtype trkC: 0.7 ratio
trkC mutant H318A
  ratio EC50 mutant/EC50 wildtype trkC: 0.8 ratio
trkC mutant N335A [4]
  ratio EC50 mutant/EC50 wildtype trkC: 0.5 ratio
[5]
  Kd: 51 nM
[6]
  Kd: 42 nM
[10]
  ratio EC50 mutant/EC50 wildtype trkC: 1 ratio
[11]
  signal of the biotin-MAb in the competition ELISA: 1.24
[12]
  signal of the biotin-MAb in the competition ELISA: 0
[13]
  signal of the biotin-MAb in the competition ELISA: 1.34
[14]
  signal of the biotin-MAb in the competition ELISA: 1.4
[20]
  signal of the biotin-MAb in the competition ELISA: 1.4

B3: anti-trkC agonist monoclonal antibody 2345 (antibody, human IgG2, V domains shown)
VH: QVQLQESGPGLVKPSQTLSLTCTVSGGSISSGGYYWSWIRQHPEKGLEWIGYIFYSGRTYYNPSLKSRVTISVDTSKNQFSLKLNSVTAADTAVYYCARERIAAAGADYYYNGLDVWGQGTTVTVSS
VL: EIVLTQSPGTLSLSPGERATLSCRASQSVSSNYLTWYQQKPGQAPRLLIYGASSRATGIPDRFSGSGSGTDFTLTISRLEPEDFAVYYCQQYGRSPPITFGQGTRLEIKR
notes: human IgG2 from Xenomouse hybridoma; heavy chain subgroup II, light chain kappa III
[1]
  Kd: 12.1 nM
[2]
  EC50 (read off the curve), trkC tyrosine phosphorylation, KIRA: ~2 nM
trkC mutant R285A [3]
  ratio EC50 mutant/EC50 wildtype trkC: 1 ratio
trkC mutant L286H [18]
  ratio EC50 mutant/EC50 wildtype trkC: 0.5 ratio
trkC mutant H318A
  ratio EC50 mutant/EC50 wildtype trkC: 1 ratio
[6]
  Kd: 12 nM
trkC mutant L284E [7]
  binding result: no binding
trkC mutant E287K [9]
  binding result: no binding
trkC mutant N335A [21]
  binding result: no binding
[10]
  ratio EC50 mutant/EC50 wildtype trkC: 1 ratio
[11]
  signal of the biotin-MAb in the competition ELISA: 0.04
[12]
  signal of the biotin-MAb in the competition ELISA: 0.07
[14]
  signal of the biotin-MAb in the competition ELISA: 0.04
[15]
  signal of the biotin-MAb in the competition ELISA: 0.02
[20]
  signal of the biotin-MAb in the competition ELISA: 0.17
[22]
  signal of the biotin-MAb in the competition ELISA: 0.11

B4: anti-trkC agonist monoclonal antibody 2349 (antibody, human IgG4, V domains shown)
VH: QVQLQESGPGLVKPSQTLSLTCTVSGGSISSGYYYWSWIRQHPGKGLEWIGYIYYSGSTYYNPSLKSRLTISVDTSKNQFSLKLSSVTAADTAVYYCARERIAAAGTDYYYNGLAVWGQGTTVTVSS
VL: GIVLTQSPGTLSLSPGERATFSCRASQSGSSTYLAWYQQKPGQAPRLLIYGASSRATGIPDRFSGSGSGTDFTLTISRLEPEDFAVYYCQQYGRSPPITFGQGTRLEIKR
notes: human IgG4 from Xenomouse hybridoma; heavy chain subgroup II, light chain kappa III
[1]
  Kd: 23 nM
[2]
  EC50 (read off the curve), trkC tyrosine phosphorylation, KIRA: ~3 nM
trkC mutant R285A [3]
  ratio EC50 mutant/EC50 wildtype trkC: 0.9 ratio
trkC mutant L286H [18]
  ratio EC50 mutant/EC50 wildtype trkC: 0.6 ratio
trkC mutant H318A
  ratio EC50 mutant/EC50 wildtype trkC: 0.7 ratio
trkC mutant N335A [4]
  ratio EC50 mutant/EC50 wildtype trkC: 1.5 ratio
[6]
  Kd: 23 nM
trkC mutant L284E [7]
  binding result: no binding
trkC mutant E287K [9]
  binding result: no binding
[10]
  ratio EC50 mutant/EC50 wildtype trkC: 1 ratio
[11]
  signal of the biotin-MAb in the competition ELISA: 0.02
[12]
  signal of the biotin-MAb in the competition ELISA: 0.03
[13]
  signal of the biotin-MAb in the competition ELISA: 0.02
[14]
  signal of the biotin-MAb in the competition ELISA: 0.01
[15]
  signal of the biotin-MAb in the competition ELISA: 0
[22]
  signal of the biotin-MAb in the competition ELISA: 0.04
[16]
  signal of the biotin-MAb in the competition ELISA: 0.03

B5: neurotrophin-3 (NT-3) (ligand, UniProt P20783 139-257, looked up)
chain: YAEHKSHRGEYSVCDSESLWVTDKSSAIDIRGHQVTVLGEIKTGNSPVKQYFYETRCKEARPVKNGCRGIDDKHWNSQCKTSQTYVRALTSENNKLVGWRWIRIDTSCVCALSRKIGRT
[2]
  EC50 (read off the curve), trkC tyrosine phosphorylation, KIRA: 5 to 9 nM
[23]
  EC50 (read off the curve), trkC tyrosine phosphorylation, KIRA: 5 to 9 nM

B6: anti-trkC agonist monoclonal antibody 2256 (antibody, mouse IgG1, V domains shown)
VH: QVQLQQPGAELVKPGASVKLSCKASGYTFTSYWMHWVKQRPGQGLEWIGEIYPSNGRTNYNEKFKSKATLTVDKSSSTAYMQLSSLTSEDSAVYYCARKYYYGNSYRSWYFDVWGAGTTLTVSS
VL: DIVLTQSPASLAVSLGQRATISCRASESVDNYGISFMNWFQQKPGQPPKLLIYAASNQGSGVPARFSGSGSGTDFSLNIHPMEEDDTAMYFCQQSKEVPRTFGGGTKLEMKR
notes: murine IgG1; heavy chain subgroup IIA, light chain kappa III
[1]
  Kd: 62 nM
[23]
  EC50 (read off the curve), trkC tyrosine phosphorylation, KIRA: ~4 nM
trkC mutant L284E [17]
  ratio EC50 mutant/EC50 wildtype trkC: 1.1 ratio
trkC mutant L286H [18]
  ratio EC50 mutant/EC50 wildtype trkC: 0.6 ratio
trkC mutant E287K [19]
  ratio EC50 mutant/EC50 wildtype trkC: 0.7 ratio
trkC mutant H318A
  ratio EC50 mutant/EC50 wildtype trkC: 0.8 ratio
trkC mutant N335A [4]
  ratio EC50 mutant/EC50 wildtype trkC: 0.5 ratio
[5]
  Kd: 300 nM
[6]
  Kd: 62 nM
trkC mutant R285A [24]
  binding result: no binding
[10]
  ratio EC50 mutant/EC50 wildtype trkC: 1 ratio
[11]
  signal of the biotin-MAb in the competition ELISA: 0.01
[12]
  signal of the biotin-MAb in the competition ELISA: 0.02
[13]
  signal of the biotin-MAb in the competition ELISA: 0.02
[15]
  signal of the biotin-MAb in the competition ELISA: 0.07
[22]
  signal of the biotin-MAb in the competition ELISA: 0.13
[16]
  signal of the biotin-MAb in the competition ELISA: 0.12
